Test results as given in US6410239B1, “Identification and comparison of protein—protein interactions that occur in populations and identification of inhibitors of these interactors” (CuraGen Corporation, priority 1996, dated 2002).

Experiments:
[1] = target: T1, interaction between the RAF-GAD and RAS-GBD proteins (Homo sapiens, UniProt P04049); assay: Peptide expressed from pPEV1 tested for inhibition of the RAS-RAF interaction in yeast mating two-hybrid assay; assay type: cell-based
T1 construct: expressed in transfected cells; host or cells: Saccharomyces cerevisiae diploids of YULH-RAFINT (RAF-GAD integrated at MER2) x N106' (RAS-GBD plasmid)
Source text: These oligonucleotides also introduced unique restriction sites (EagI and SphI) that facilitate the cloning of the amplified DNA fragments into the integration vector R1400. The R1400 plasmid vector consists of two yeast genes LYS2 (Fleig et al., 1986, Gene 46:237-245) and MER2 (Engebrecht et al., 1991, Cell 66:1257-1268). The LYS2 marker is used for the selection of integration events, while, the MER2 gene is used for integration of the entire plasmid into the yeast genome. MER2 is a gene that is not essential for the vegetative growth of yeast. The RAF-GAD gene was cloned into the R1400 plasmid to yield RAF-INT. This plasmid was then digested with the restriction enzyme PstI that has a site in the MER2 gene. The restriction was done in a partial manner as there are other PstI sites in the plasmid vector. The restriction digestion was allowed to proceed only for 1 minute and then the enzyme was inactivated by extracting with phenol-chloroform and the DNA was then precipitated. This linearized DNA was used to transform the YULH strain to yield YULH-RAFINT. Integration occurs at the MER2 locus, and the integration events were selected by growing the transformants on media lacking lysine. The N106′ strain was transformed with the RAS-GBD plasmid to form N106′ (RAS-GBD). The proper functioning of the RAF-GAD fusion was confirmed by mating YULH-RAFINT and N106′ (RAS-GBD) and observing the resultant activation of the URA3 and the lacZ Reporter Genes.
The PEVs serve to express and localize peptides (or proteins) in the nucleus of the yeast cell where their potential to inhibit specific protein-protein interactions is tested. This inhibitory activity of the peptides is monitored by their ability to inhibit the activity of the reporter genes like URA3, HIS3 and lacZ.
The PEVs comprise the following operably linked components (FIG. 7): an ADC1 promoter (ADC1-P) for supporting transcription in yeast (Ammerer, 1983, Meth. Enymol. 101:192-201); a nucleotide sequence encoding an SV40 Nuclear Localization Signal (NLS) for transporting the peptide to the nucleus (Dingwal and Laskey, 1991, Trends. Biochem. Sci. 16:478); followed by a stop codon (UAG) for terminating translation; means for inserting a DNA sequence encoding a candidate inhibitor peptide into the PEV in such a manner that the candidate inhibitor peptide is capable of being expressed as part of a fusion protein containing the NLS; and an ADC1 transcription termination signal. The NLS from SV40 large T comprises a 7 amino acid stretch (PKKKRKV) (SEQ ID NO:20) that has been successfully used in targeting proteins into the yeast nucleus (Benton et al., 1990, Mol. Cell. Biol. 10:353-360). […]

[2] = target: T2, YULH(R4-GBD) and N106′ (FKBP-12-GAD) interacting hybrid proteins (Homo sapiens, UniProt P62942); assay: 5-FOA assay identifying cells containing a non-genetically-encoded inhibitor of protein-protein interaction; assay type: cell-based, yeast
T2 construct: These primers flank the entire coding region of the FKBP-12 protein; expressed in transfected cells; host or cells: Saccharomyces cerevisiae YULH(R4-GBD) x N106'(FKBP-12-GAD)
Method: The above method described for the isolation of inhibitor peptides can also be used to screen and isolate inhibitors that are not genetically encoded. In other contexts, for example, a yeast-based transcription-inhibition assay has been used to screen for inhibitors of the HIV-1 proteinase (Murray et al., 1993, Gene 134:123-128). The reporter strains YULH(R4-GBD) and N106′ (FKBP-12-GAD), that harbor the reporter gene-systems and the two interacting proteins are grown in a 96-well format with each well containing 200 μl of media that selects for both the GBD and GAD plasmids (SC-LEU-TRP).
After a growth period (24-36 hours) that is sufficient for early log-phase growth (a cell density of 1×10^7 cells/ml), the cells are exposed to an RNA inhibitor at a concentration of 100 nM for 1-2 hours. This RNA inhibitor is of the sequence 5′-[…]-3′ (SEQ ID NO:35). The pyrimidines in this RNA are modified with 2′-amino-2-deoxypyrimidines that causes the RNA to be resistant to nucleases. This RNA binds with high affinity to VEGF (Green et al., 1995, Current Biol. 2:683-695). […]
In the absence of the RNA inhibitor, cells are not able to grow in 5-FOA. […] The activity of the lacZ gene is determined by assaying the β-galactosidase activity of the cells as mentioned in Section 6.1.11. […]

VEGF = target: T3, VEGF (Homo sapiens, UniProt P15692); conditions: cited from earlier work
T3 sequence (P15692 207-395): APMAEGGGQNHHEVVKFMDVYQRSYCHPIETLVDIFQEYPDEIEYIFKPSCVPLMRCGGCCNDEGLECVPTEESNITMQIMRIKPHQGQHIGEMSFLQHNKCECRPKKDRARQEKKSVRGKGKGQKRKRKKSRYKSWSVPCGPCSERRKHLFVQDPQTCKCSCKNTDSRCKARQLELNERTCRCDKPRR

T2 sequence (P62942 whole entry): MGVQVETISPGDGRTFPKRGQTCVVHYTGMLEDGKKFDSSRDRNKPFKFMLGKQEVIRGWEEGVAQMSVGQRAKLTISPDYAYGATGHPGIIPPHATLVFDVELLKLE

Substance	β-galactosidase activity (lacZ reporter) of diploids ([1]; YULH2RAS (pPEVRAS-E) mated to N106′(RAS-GBD), control diploids are LACZ+)	growth of diploids on media lacking uracil (URA3 reporter) ([1]; YULH2RAS (pPEVRAS-E) mated to N106′(RAS-GBD), control diploids are URA+)	growth of diploids on medium containing 5-FOA ([1]; YULH2RAS (pPEVRAS-E) mated to N106′(RAS-GBD), control diploids unable to grow)	inhibition of the protein-protein interaction ([1]; peptide expressed in the yeast nucleus from pPEV1)	growth in SC-TRP-LEU in the absence of 5-FOA, in the presence of the inhibitor ([2]; RNA inhibitor at 100 nM)	growth in media containing 5-FOA and uracil ([2]; RNA inhibitor at 100 nanomolar, without inhibitor cells are not able to grow in 5-FOA)	binding affinity to VEGF (VEGF)
RAS effector peptide: RAS amino acids 17-40, from a region important for interaction with RAF, expressed from pPEVRAS-E (SALTIQLIQNHFVDEYDPTIEDSY; UniProt P01112 17-40, looked up, fragment)	negative for β-galactosidase activity	unable to grow on media lacking uracil	grow on medium containing 5-FOA	inhibits the interaction			
5′-CCCUGAUGGUAGACCGGGGUG-3′ (chemistry not fully specified) [RNA inhibitor]					able to grow	Growth is evident	high affinity
